Measurements as given in patent publication US20140087995A1 (published 2014).
Numbered stars: 1 amine (or outer) side, 2 acyl side, 3 side chain; on linkers, the order of the positions; unused ones are H or OH. Bridge positions count the residues as written; N and C are the ends. Side chains are listed from the residue outwards. Ends that are not written are not given here. * marks the point of attachment. C20 diacid = O=C(O)CCCCCCCCCCCCCCCCCCC(=O)*; γGlu = O=C(O)[C@H](CCC(=O)[*:2])N[*:1]; AEEA = NCCOCCOCC(=O)O

T1: human calcitonin receptor (human, UniProt P30988 25-474)
T1 construct: whole, on cells; Membranes of a stably transfected BHK cell line (Assay VII); also called hCTR; hCT
T1 sequence (looked up): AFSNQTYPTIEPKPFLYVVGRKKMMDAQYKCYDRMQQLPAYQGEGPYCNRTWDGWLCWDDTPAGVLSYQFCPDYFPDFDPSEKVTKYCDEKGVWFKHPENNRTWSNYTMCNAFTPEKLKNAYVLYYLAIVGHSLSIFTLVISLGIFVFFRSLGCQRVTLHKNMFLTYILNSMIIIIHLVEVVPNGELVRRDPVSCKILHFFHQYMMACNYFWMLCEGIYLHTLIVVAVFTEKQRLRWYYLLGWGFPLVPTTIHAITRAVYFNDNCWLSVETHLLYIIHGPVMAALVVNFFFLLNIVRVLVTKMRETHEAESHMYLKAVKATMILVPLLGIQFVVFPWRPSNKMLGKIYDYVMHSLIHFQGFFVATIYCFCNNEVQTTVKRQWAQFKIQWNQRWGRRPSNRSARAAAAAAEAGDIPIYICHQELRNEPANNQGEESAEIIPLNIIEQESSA

T2: rat calcitonin receptor (rat, UniProt P32214 25-516)
T2 construct: whole, on cells; Membranes of transiently transfected BHK tk'ts 13 cells (Assay VIII); also called rCTR
T2 sequence (looked up): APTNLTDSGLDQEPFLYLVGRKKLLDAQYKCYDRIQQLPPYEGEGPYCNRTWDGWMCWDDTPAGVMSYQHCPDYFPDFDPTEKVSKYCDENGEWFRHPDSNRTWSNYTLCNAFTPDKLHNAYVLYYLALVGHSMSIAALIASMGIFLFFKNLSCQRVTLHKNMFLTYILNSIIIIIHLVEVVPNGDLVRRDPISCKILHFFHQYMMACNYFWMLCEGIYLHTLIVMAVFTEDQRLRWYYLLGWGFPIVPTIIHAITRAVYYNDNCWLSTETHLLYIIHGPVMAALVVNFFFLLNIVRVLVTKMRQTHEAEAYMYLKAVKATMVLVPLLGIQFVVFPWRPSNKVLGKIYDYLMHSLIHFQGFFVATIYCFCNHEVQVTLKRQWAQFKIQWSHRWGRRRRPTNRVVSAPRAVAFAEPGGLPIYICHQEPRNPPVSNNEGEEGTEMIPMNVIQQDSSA

T3: rat amylin receptor (rat calcitonin receptor + rat RAMP 3) (rat, UniProt P32214 25-516; Q9JJ73 23-147)
T3 construct: whole, on cells; Membranes of transiently transfected BHK tk'ts 13 cells (Assay VI); also called rAmylin-R; rat amylin 3(a) receptor
T3 sequence (looked up) 1: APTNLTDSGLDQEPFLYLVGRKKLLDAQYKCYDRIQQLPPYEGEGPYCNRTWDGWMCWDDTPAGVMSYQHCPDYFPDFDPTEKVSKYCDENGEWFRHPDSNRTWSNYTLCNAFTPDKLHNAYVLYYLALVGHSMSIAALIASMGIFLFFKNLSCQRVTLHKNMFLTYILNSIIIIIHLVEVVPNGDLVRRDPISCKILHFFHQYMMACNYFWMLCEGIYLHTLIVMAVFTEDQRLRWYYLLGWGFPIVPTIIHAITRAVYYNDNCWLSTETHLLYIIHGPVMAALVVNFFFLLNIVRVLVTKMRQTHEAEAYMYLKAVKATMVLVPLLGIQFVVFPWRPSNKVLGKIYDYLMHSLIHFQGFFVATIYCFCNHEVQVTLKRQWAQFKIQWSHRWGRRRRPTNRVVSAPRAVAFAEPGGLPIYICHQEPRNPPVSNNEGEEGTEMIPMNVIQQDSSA
T3 sequence (looked up) 2: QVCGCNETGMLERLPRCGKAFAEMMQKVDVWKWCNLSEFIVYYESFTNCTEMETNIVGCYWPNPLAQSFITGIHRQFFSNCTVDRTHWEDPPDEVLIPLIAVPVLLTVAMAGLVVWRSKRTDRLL


Columns and labels:
[1] = biological target: T1, human calcitonin receptor; test: ratio IC50 human calcitonin receptor / IC50 human amylin receptor (reference)
Experimental: The resulting pellet was resuspended, homogenized and centrifuged (20.000 rpm, 15 min) in a buffer containing 20 mM Na-HEPES and 0.1 mM EDTA (pH 7.4, buffer 2). The resulting pellet was resuspended in buffer 2 and protein concentration was measured (BCA protein Assay, Pierce). The homogenate was kept cold during the whole procedure. The membranes were kept at −80° C. until use. The assay was performed in a 384 well Optiplate (PerkinElmer) in a total volume of 40 ul. Membranes were mixed with SPA beads. Final concentration of membranes 35 ng/μL final and SPA beads was 0.05 mg/well. Test-compounds were dissolved in DMSO and further diluted in assay buffer (50 mM Hepes, pH 7.4, 1 mM CaCl2, 5 mM MgCl₂, 0.1% OA and 0.02% Tween20). […] The final mixture was incubated with shaking at 400 rpm for 120 min at 25° C. prior to centrifugation (1500 rpm, 10 min). Samples were analyzed on TopCounter™ (Packard). The IC₅₀ was calculated using (one site binding competition analysis) GraphPad Prism5 as a measure of receptor affinity.
Membranes were prepared in the following way; the cells were rinsed with PBS and incubated with Versene for approximately 5 min before harvesting. The cells were flushed with PBS and the cell-suspension was centrifuged for 5 min at 1000 rpm. Cells were homogenized (Ultrathurrax) in a buffer containing 20 mM Na-HEPES and 10 mM EDTA (pH 7.4) and centrifuged at 20.000 rpm for 15 min. The resulting pellet was resuspended, homogenized and centrifuged (20.000 rpm, 15 min) in a buffer containing 20 mM Na-HEPES and 0.1 mM EDTA (pH 7.4, buffer 2). The resulting pellet was resuspended in buffer 2 and protein concentration was measured (BCA protein Assay, Pierce). The homogenate was kept cold during the whole procedure. The membranes were kept at −80° C. until use. Assay was performed in a 384 well Optiplate (PerkinElmer) in a total volume of 40 ul. Membranes were mixed with SPA beads.

[2] = biological target: T2, rat calcitonin receptor; test: SPA competition with 125I-calcitonin, membranes of BHK cells with rat calcitonin receptor (Assay VIII)
[3] = biological target: T3, rat amylin receptor (rat calcitonin …); test: SPA competition with 125I-rat amylin, membranes of BHK cells with rat calcitonin receptor + rat RAMP3 (Assay VI)
[4] = biological target: T2, rat calcitonin receptor; test: ratio IC50 rat calcitonin receptor / IC50 rat amylin receptor (reference)

| Binder | Ratio hCT/hAmylin binding [1] | IC50 [2] | IC50 [3] | Ratio rCT/rAmylin binding [4] |
| --- | --- | --- | --- | --- |
| K([AEEA-C20 diacid])CNTATCATQRLANFLRHSSPNFGAIPSSTNVGHNTY-NH2 (disulfide 2-7; N-terminus assumed; SMILES CC[C@H](C)[C@H](NC(=O)[C@H](C)NC(=O)CNC(=O)[C@H](Cc1ccccc1)NC(=O)[C@H](CC(N)=O)NC(=O)[C@@H]1CCCN1C(=O)[C@H](CO)NC(=O)[C@H](CO)NC(=O)[C@H](Cc1c[nH]cn1)NC(=O)[C@H](CCCNC(=N)N)NC(=O)[C@H](CC(C)C)NC(=O)[C@H](Cc1ccccc1)NC(=O)[C@H](CC(N)=O)NC(=O)[C@H](C)NC(=O)[C@H](CC(C)C)NC(=O)[C@H](CCCNC(=N)N)NC(=O)[C@H](CCC(N)=O)NC(=O)[C@@H](NC(=O)[C@H](C)NC(=O)[C@@H]1CSSC[C@H](NC(=O)[C@@H](N)CCCCNC(=O)COCCOCCNC(=O)CCCCCCCCCCCCCCCCCCC(=O)O)C(=O)N[C@@H](CC(N)=O)C(=O)N[C@@H]([C@@H](C)O)C(=O)N[C@@H](C)C(=O)N[C@@H]([C@@H](C)O)C(=O)N1)[C@@H](C)O)C(=O)N1CCC[C@H]1C(=O)N[C@@H](CO)C(=O)N[C@@H](CO)C(=O)N[C@H](C(=O)N[C@@H](CC(N)=O)C(=O)N[C@H](C(=O)NCC(=O)N[C@@H](Cc1c[nH]cn1)C(=O)N[C@@H](CC(N)=O)C(=O)N[C@H](C(=O)N[C@@H](Cc1ccc(O)cc1)C(N)=O)[C@@H](C)O)C(C)C)[C@@H](C)O, also called compound 91) [N^ε1-[2-[2-[2-(19-carboxynonadecanoylamino)ethoxy]ethoxy]acetyl]-[Arg17,Pro21,Pro27,His34]-h-amylin] | 101 | 0.0295 µM | 0.000386 µM | 76.3 |
| K([AEEA-AEEA-γGlu-C20 diacid])CNTATCATQRLANFLRHSSPNFGAIPSSTNVGHNTY-NH2 (disulfide 2-7; N-terminus assumed; SMILES CC[C@H](C)[C@H](NC(=O)[C@H](C)NC(=O)CNC(=O)[C@H](Cc1ccccc1)NC(=O)[C@H](CC(N)=O)NC(=O)[C@@H]1CCCN1C(=O)[C@H](CO)NC(=O)[C@H](CO)NC(=O)[C@H](Cc1c[nH]cn1)NC(=O)[C@H](CCCNC(=N)N)NC(=O)[C@H](CC(C)C)NC(=O)[C@H](Cc1ccccc1)NC(=O)[C@H](CC(N)=O)NC(=O)[C@H](C)NC(=O)[C@H](CC(C)C)NC(=O)[C@H](CCCNC(=N)N)NC(=O)[C@H](CCC(N)=O)NC(=O)[C@@H](NC(=O)[C@H](C)NC(=O)[C@@H]1CSSC[C@H](NC(=O)[C@@H](N)CCCCNC(=O)COCCOCCNC(=O)COCCOCCNC(=O)CC[C@H](NC(=O)CCCCCCCCCCCCCCCCCCC(=O)O)C(=O)O)C(=O)N[C@@H](CC(N)=O)C(=O)N[C@@H]([C@@H](C)O)C(=O)N[C@@H](C)C(=O)N[C@@H]([C@@H](C)O)C(=O)N1)[C@@H](C)O)C(=O)N1CCC[C@H]1C(=O)N[C@@H](CO)C(=O)N[C@@H](CO)C(=O)N[C@H](C(=O)N[C@@H](CC(N)=O)C(=O)N[C@H](C(=O)NCC(=O)N[C@@H](Cc1c[nH]cn1)C(=O)N[C@@H](CC(N)=O)C(=O)N[C@H](C(=O)N[C@@H](Cc1ccc(O)cc1)C(N)=O)[C@@H](C)O)C(C)C)[C@@H](C)O, also called compound 97) | 104 | 0.159 µM | 0.00224 µM | 71.1 |
| K([AEEA-AEEA-γGlu-C20 diacid])CNTATCATQRLANFLRHSSPNFGAIPSSTNVGRNTY-NH2 (disulfide 2-7; N-terminus assumed; SMILES CC[C@H](C)[C@H](NC(=O)[C@H](C)NC(=O)CNC(=O)[C@H](Cc1ccccc1)NC(=O)[C@H](CC(N)=O)NC(=O)[C@@H]1CCCN1C(=O)[C@H](CO)NC(=O)[C@H](CO)NC(=O)[C@H](Cc1c[nH]cn1)NC(=O)[C@H](CCCNC(=N)N)NC(=O)[C@H](CC(C)C)NC(=O)[C@H](Cc1ccccc1)NC(=O)[C@H](CC(N)=O)NC(=O)[C@H](C)NC(=O)[C@H](CC(C)C)NC(=O)[C@H](CCCNC(=N)N)NC(=O)[C@H](CCC(N)=O)NC(=O)[C@@H](NC(=O)[C@H](C)NC(=O)[C@@H]1CSSC[C@H](NC(=O)[C@@H](N)CCCCNC(=O)COCCOCCNC(=O)COCCOCCNC(=O)CC[C@H](NC(=O)CCCCCCCCCCCCCCCCCCC(=O)O)C(=O)O)C(=O)N[C@@H](CC(N)=O)C(=O)N[C@@H]([C@@H](C)O)C(=O)N[C@@H](C)C(=O)N[C@@H]([C@@H](C)O)C(=O)N1)[C@@H](C)O)C(=O)N1CCC[C@H]1C(=O)N[C@@H](CO)C(=O)N[C@@H](CO)C(=O)N[C@H](C(=O)N[C@@H](CC(N)=O)C(=O)N[C@H](C(=O)NCC(=O)N[C@@H](CCCNC(=N)N)C(=O)N[C@@H](CC(N)=O)C(=O)N[C@H](C(=O)N[C@@H](Cc1ccc(O)cc1)C(N)=O)[C@@H](C)O)C(C)C)[C@@H](C)O, also called compound 95) | 63.4 | 0.389 µM | 0.00545 µM | 71.3 |
| K([AEEA-C20 diacid])CNTATCATQRLAHFLRHSSPNFGAIPSSTNVGSNTY-NH2 (disulfide 2-7; N-terminus assumed; SMILES CC[C@H](C)[C@H](NC(=O)[C@H](C)NC(=O)CNC(=O)[C@H](Cc1ccccc1)NC(=O)[C@H](CC(N)=O)NC(=O)[C@@H]1CCCN1C(=O)[C@H](CO)NC(=O)[C@H](CO)NC(=O)[C@H](Cc1c[nH]cn1)NC(=O)[C@H](CCCNC(=N)N)NC(=O)[C@H](CC(C)C)NC(=O)[C@H](Cc1ccccc1)NC(=O)[C@H](Cc1c[nH]cn1)NC(=O)[C@H](C)NC(=O)[C@H](CC(C)C)NC(=O)[C@H](CCCNC(=N)N)NC(=O)[C@H](CCC(N)=O)NC(=O)[C@@H](NC(=O)[C@H](C)NC(=O)[C@@H]1CSSC[C@H](NC(=O)[C@@H](N)CCCCNC(=O)COCCOCCNC(=O)CCCCCCCCCCCCCCCCCCC(=O)O)C(=O)N[C@@H](CC(N)=O)C(=O)N[C@@H]([C@@H](C)O)C(=O)N[C@@H](C)C(=O)N[C@@H]([C@@H](C)O)C(=O)N1)[C@@H](C)O)C(=O)N1CCC[C@H]1C(=O)N[C@@H](CO)C(=O)N[C@@H](CO)C(=O)N[C@H](C(=O)N[C@@H](CC(N)=O)C(=O)N[C@H](C(=O)NCC(=O)N[C@@H](CO)C(=O)N[C@@H](CC(N)=O)C(=O)N[C@H](C(=O)N[C@@H](Cc1ccc(O)cc1)C(N)=O)[C@@H](C)O)C(C)C)[C@@H](C)O, also called compound 90) [N^ε1-[2-[2-[2-(19-carboxynonadecanoylamino)ethoxy]ethoxy]acetyl]-[His14,Arg17,Pro21,Pro27]-h-amylin] | 42.2 | 0.0182 µM | 0.000246 µM | 74.1 |
